Results reported in the supplement of paper PMC9170038.

Tests used:
MS2 coat protein = test: apparent KD of MS2 coat protein; higher = weaker reporter binding; details: Eterna round: R107
Procedure: (§1)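 RNA-MaP round R107: designed RNA switches with theophylline, tryptophan, arginine or FMN aptamers are transcribed on-chip within common flanks. They are titrated with SNAP-549-labelled MS2 coat protein in RNA-MaP buffer (100 mM Tris pH 7.5, 80 mM KCl, 4 mM MgCl2), without ligand or with the indicated ligand. Median apparent KD per design.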

[1] = test system: K4 kissing-loop RNA reporter; test: apparent KD of K4 kissing-loop reporter; higher = weaker reporter binding; details: Eterna round: R107;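 further: bound reporter read as fluorescence of individual clusters on recovered sequencing chips by microscopy, with normalized cluster intensities fitted with a binding model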
Procedure: as §1, with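 “a labelled K4 kissing-loop RNA reporter” for “SNAP-549-labelled MS2 coat protein”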

[2] = input ligand: theophylline 20 uM
[3] = input ligand: theophylline 2 mM
[4] = input ligand: tryptophan 2.4 mM

Sequence	apparent KD of MS2 coat protein (MS2 coat protein; input ligand: arginine 13.2 mM) [nM]	apparent KD of MS2 coat protein (MS2 coat protein; input ligand: none) [nM]	apparent KD of MS2 coat protein (MS2 coat protein; [2]) [nM]	apparent KD of MS2 coat protein (MS2 coat protein; [3]) [nM]	apparent KD of MS2 coat protein (MS2 coat protein; [4]) [nM]	apparent KD of K4 kissing-loop reporter ([1]; input ligand: FMN 200 uM) [nM]	apparent KD of K4 kissing-loop reporter ([1]; input ligand: arginine 13.2 mM) [nM]	apparent KD of K4 kissing-loop reporter ([1]; input ligand: none) [nM]	apparent KD of K4 kissing-loop reporter [1, 2] [nM]	apparent KD of K4 kissing-loop reporter [1, 4] [nM]
AAAAUAAAGGCGGCCGCCACUAGAGUUAGGCAUAUGUACUGGGUAACAUGAGGAUCACCCAUGUAUAGGACCGGGCCAUAAUAAA [Same State - Tryptophan B (Freestyle 1)]	51.7	39.9	46.2	33.4	36.5	–	–	–	–	–
AAAAUAUAGACGGCCGCCACUAUAAACAUGAGGAACAUGAGGAUCACCCAUGUAUGAGGAUCACCUAGGACCGGGUCAUAUAAAA [AstrosExyTryB#1]	28.6	43	55.4	41.7	40.2	–	–	–	–	–
AAACAUUGCUGCGAUACCAGACAUGAGGAUCACCCAUGUACCAAGGUAAGAAAAUAACAUGUCCCUUGGCAGCGCAGCAAUGAAA [MAT - Exclusion Theophlline B - Mod of Eli - D2]	19.2	–	33.4	–	15.8	–	–	–	–	–
AAACGUUGCUCAGAUACCAGACAUGAGGAUCACCCAUGUACCGAGGUACCCGAAAGGAAUGUCCCUUGGCAGCUGAGCAACGAAA [MAT - Exclusion Theophlline B - Mod of Eli - D23]	14.6	–	19	–	10.2	–	–	–	–	–
AAAGUUGAUGAGUUGCGUUUGUGUUCCGAAGGAGCGAGAAUUAUCUCAGGUAGGUCGCGGAACAUGAGGAUCACCCAUGUAUAAA [XArg-A 19 NuV1&2 original #dotplot2>1]	35.3	36.3	46.2	41.6	34.3	–	–	–	–	–
AAAUAAUCUAGUCCACAAUGUGACUCAGAUACCAGUGCAAAGCUACACCCUUGGCAGCUGGUUACAUGAGGAUCACCCAUGUCGU [theeternabot_exclusion_MS2_Theo_A_50]	34.3	–	51.9	–	46.9	–	–	–	–	–
AAAUAUAACUCGGCCGCCACUGACAUGAGGAUCACCCAUGUUAUAUUUUAUACAUGAGGAUCACCCAGGACCGGGAGAAUAUAAA [Jonah 1]	61.7	940	484	696	1590	–	–	–	–	–
AACAUGAGGAUCACCCAUGUAAUAUGGGAUACCAGAGACGAAAGUCUCCCUUGGCAGCCCAAGCUGCUCCAUACGAAAGUAUGGU [Theophylline A 16]	50.5	–	43.7	–	64.7	–	–	–	–	–
AACAUGAGGAUCACCCAUGUCAUGUUGGAUACCAGCCAAUAAUAAGGCCCUUGGCAGCUAUAGAUCGAUGAUCCAUGAGGAUCAC [Exclusion Theophylline A]	27.6	–	49.4	–	33.1	–	–	–	–	–
AACAUGAGGAUUGAUACCAGUCCAUGAGGAUCACAUGAGGAUCACCCAUGUGGAACAUGAGGCCCUUGGCAGCAGUACAACAUGA [Same State Theophylline B]	13.8	–	17.2	–	17.3	–	–	–	–	–
AACCAUCUCGGCGAUACCAGUGCCUACGAGUACAUGAGGAUCACCCAUGUAGGUGACCGACACCCUUGGCAGCGCGAUUGAGUCA [theeternabot_sameState_MS2_Theo_B_45]	70.9	–	184	–	129	–	–	–	–	–
AACGUGAACGUGGUAUACCCGUGUGCCGAAGGAGCGCCCGUAAGGGCAGGUAGGUCGCGGUCGACAUGAGGAUCACCCAUGUUUG	39.5	74.6	84.2	106	81.6	–	–	–	–	–
AACUGGAUCAGUGAUACCAGAGACAUGAGGAUCACCCAUGUACAUGAGGAUCACCCAUGUCUCCCUUGGCAGCACAGCAGGGAGC [Exclusion Theophylline B GF 17]	32.8	70	70.3	442	64.1	–	–	–	–	–
AACUGGGUUCGUGAUACCAGCUCACACAUGAGGAUCACCCAUGUAGUGGGUAAAAUGUGGAGCCCUUGGCAGCACUGUGACCACG [Esria]	14.6	–	25.4	–	14.4	–	–	–	–	–
AAGAAGUUUUGAUUUUUAUGAAGUAGUGAUACCAGUUAAGAAAGAGACCCUUGGCAGCGCAACAUGAGGAUCACCCAUGUAAGAA [Another radom design]	18.9	17.3	21.1	19.7	21.9	–	–	–	–	–
AAGACAUGAGGAUCACCCAUGUCGUCAACACGAGGACCGGUACGGCCGCCACUCGCAUGCCAAUGAGCGCAUGCGGCCUGGGUAU [Exclusion Tryp A GF4]	8.77	14.8	18	13.8	34.3	–	–	–	–	–
AAGACGGUCGGAAGGAGCGGUACAUGAGGAUCACCCAUGUAUUCCUGGGCAUCCGUAGUGUGCCAGGUAGGUCGCCGAUUGCGGG [XArg-B13]	40.3	37.9	91.7	97.2	40.9	–	–	–	–	–
AAGAGUUGACAAAAGUCAGCUCAAACCGAAGGAGCGGGAGAAAUCCCAGGUAGGUCGCGGUUACAUGAGGAUCACCCAUGUUCCU [ArgAS 6 #BothOrNeither #OpenEnded]	68.1	355	376	300	273	–	–	–	–	–
AAGAUACUCUGAAGGAGCGUCAUAAAACAUGAGGAUCACCCAUGUGCGCGGGUGUAAUUAUGACAGGUAGGUCGCAGAGUAUUUA [Arg B SS t2]	424	179	515	601	442	–	–	–	–	–

Sequence	apparent KD of MS2 coat protein (MS2 coat protein; input ligand: arginine 13.2 mM) [nM]	apparent KD of MS2 coat protein (MS2 coat protein; input ligand: none) [nM]	apparent KD of MS2 coat protein (MS2 coat protein; [2]) [nM]	apparent KD of MS2 coat protein (MS2 coat protein; [3]) [nM]	apparent KD of MS2 coat protein (MS2 coat protein; [4]) [nM]	apparent KD of K4 kissing-loop reporter ([1]; input ligand: FMN 200 uM) [nM]	apparent KD of K4 kissing-loop reporter ([1]; input ligand: arginine 13.2 mM) [nM]	apparent KD of K4 kissing-loop reporter ([1]; input ligand: none) [nM]	apparent KD of K4 kissing-loop reporter [1, 2] [nM]	apparent KD of K4 kissing-loop reporter [1, 4] [nM]
AAUAAACAUGAGGAUCACCCAUGUAUGGAAGGAGCGGUGAAUAAACCAGGUAGGUCGCCAGUGUGAGGGUCAUCUAUGUAAUAAA [Exclusion - Arginine A (Freestyle 2)]	68.4	42.7	43.1	56.2	37.9	–	–	–	–	–
AAUAACAUGAGGAUCACCCAUGUAAAAGAUACCAGAGUGAUGAUCCUCCCUUGGCAGCUUAAUAACGCUAUUGAUUACAAUAGCG [Mat - Same State Theophlline A - Mod of Eli - D6]	33.5	–	98.7	–	37.2	–	–	–	–	–
AAUAAUAGGUGAUCUUAAGUCGUACCGUAACGAGGACCGGUACGGCCGCCACUCGAACAUGAGGAUCACCCAUGUAUGUAUGAUA [whbob_SS_trypto A_f5]	44.7	168	242	300	80.7	–	–	–	–	–
AAUAUAUAUCACGAACUGUGGUGUAUGUUCCGAGGACCGGUACGGCCGCCACUCGCGUGGUUCCACAUGAGGAUCACCCAUGUUG [XTryp A #8]	17.3	16.8	29.4	23.2	22.5	–	–	–	–	–
AAUGUCGGAUCGGCCGCCACUGGUUGGCCCUGUGUACAUGAGGAUCACCCAUGUCCAUCCCAAACCAGGACCGGGAUCUUUAUGU [Xeananor]	37.9	–	51.7	40.4	–	–	–	–	–	–
AAUUAUCAGUCGGCCGCCACUGACACAUGAGGAUCACCCAUGUAACUUGGGUUAAAUUUACUGAACAGGACCGGGACAAAGGCUA [JR_ExcTryptoB_Sub009]	114	–	193	203	–	–	–	–	–	–
ACAAGAGGGAUGGAUACCAGCGACAUGAGGAUCACCCAUGUAUGAGGAUCAGCCAUGUUAUGCCCUUGGCAGCCACGAAGAUCAG [XXXMULLIN]	27.1	25.1	32.8	104	21.6	–	–	–	–	–
ACAAGGACAUGAGGAUCACCCAUGUGGGAAGGAGCGCAUAAAUAUGCAGGUAGGUCGCCCGGCGUGAUAUUUAAUAUUUUAAUAA [Exclusion - Arginine A]	34	55.7	79.4	73.5	60.2	–	–	–	–	–
ACACAAUACAUGAGGAUCACCCAUGUAUAACGAGGACCGGUACGGCCGCCACUCGAAUACUGUAAUCCUCGGAAUAUUAUGUGAA [JR_ExcTryptA_Sub003]	32.9	–	56.7	60.5	–	–	–	–	–	–
ACACGGCAUGAUGGAUCACCUCGUGAAUCACGAGGACCGGUACGGCCGCCACUCGAAAACCGUGACCUGUACGAAAAGUGCAGGA	36	53	254	758	38.8	–	–	–	–	–
ACAUGAGGAUCACCCAUGUAAAUAACGGAAGGAGCGUGCAAAAGCACAGGUAGGUCGCCGAUAUAAAUAUUGGGUAUUAUAUUUU [AstrosExyArgA#3]	30.4	30.4	40.3	31.7	29.6	–	–	–	–	–
ACAUGAGGAUCACCCAUGUAACGUCUUGAUACCAGACGAGAAGUAGUCCCUUGGCAGCAAAUACGUGAGGGUCACACAUGUGUAA [vvvmullin]	13.8	–	34.4	–	22.1	–	–	–	–	–
ACAUGAGGAUCACCCAUGUAAUCAUCAGAAGGAGCGUGGAAUAACACAGGUAGGUCGCUGAUGUUAUGUUAAAAUGGUUCGUGAA [JR_ExcArginiA_Sub002]	18.8	19.1	23.7	17.3	22.5	–	–	–	–	–
ACAUGAGGAUCACCCAUGUACAUGAGGGAAGGAGCGGUACAUGAGCCAGGUAGGUCGCCCAUGAGCAUCAGCCAUGUACAUCAGC [vv,mmullin]	40.9	115	97.6	101	75.7	–	–	–	–	–
ACAUGAGGAUCACCCAUGUACGGUAUCAAUCGAGGACCGGUACGGCCGCCACUCGGAAAUAGAAGCGAUUAUUAGUGUUCUUUGU [Same State - Tryptophan A / A]	16.1	–	19	16.6	–	–	–	–	–	–
ACAUGAGGAUCACCCAUGUAUUACCGGGAAGGAGCGCGUAAGGACGCAGGUAGGUCGCUCGGCGUCCGGCCGCAAGGCUGGACGA [#1 Same State - Arginine A Attempt #17 (HarryS)]	12.3	16.3	18.1	16.4	15.2	–	–	–	–	–
ACAUGAGGAUCACCCAUGUGAAGCAGGGUACGAGGACCGGUACGGCCGCCACUCGAGCAUUAUACCGAGUGAAUGGCAACGAUGU [whbob_Ex_trypto A_2s17]	14.4	–	19	21.1	–	–	–	–	–	–
UUUUUGGUUUAGAGUGAUGUUCCUUGUAAUCGAGGACCGGUACGGCCGCCACUCGAUUAGAAAAGAAAAGAAAAGAGUGAUGUUU [BDazzled - #2 SS Tryptophan A]	–	–	–	–	–	347	229	299	248	243
